Earlier results on two substances are cited in PMC5289555.

A value given as a limit tells only on which side of the number the result lay.

The target of data set [1] is Hsp90 (Saccharomyces cerevisiae) (UniProt P02829).
The target of data set [2] is Hsp90 zipped construct (Saccharomyces cerevisiae) (UniProt P02829).

As to Hsp90 (from UniProt P02829), the Kd – broadly, the free concentration of one partner at which half of the binding sites on the other are occupied at equilibrium, for simple one-to-one binding – in data set [1] is 60 nM.

“Hsp90 zipped construct (from UniProt P02829)”: in data set [2], the Kd was under 0.001 nM.
